# Source: US20240101688A1 (MYTHIC THERAPEUTICS, published 2024)
# What was measured:
# [1] = molecular target: T1, MET (cMET, Sino Biological Cat. No. 10692-H08H) (UniProt P08581 25-932); assay: BLI: antibody captured on anti-human Fc biosensor, MET in solution; three runs: pH 7.4 throughout, pH 6.4 throughout, association at pH 7.4 then release at lower pH (key on the sheet: pH 5.4; legend paragraph 84: pH 6.4); association 0-120 s
# T1 construct: Soluble analyte of the BLI assays
# [2] = molecular target: T1, MET (cMET, Sino Biological Cat. No. …); assay: BLI: antibody captured on anti-human Fc biosensor, MET in solution; one run at pH 7.4 (black) and one at pH 5.4 (grey); association 0-120 s, then dissociation
# Method: After allowing for four days of protein expression, cell culture supernatants were collected, quantified by SDS-PAGE analysis, and the pH dependence of the variant was evaluated using biolayer interferometry (BLI) on an Octet RED 96e instrument. Briefly, cell culture supernatants were diluted based on qualitative expression level of the variant determined by visual examination of SDS-PAGE gels, 5 μL of cell culture supernatant was diluted into 195 μL of 1×PBST, pH 7.4 for high expressors, 25 μL of cell culture supernatant was diluted into 175 μL of 1×PBST, pH 7.4 for medium expressors and 100 μL of cell culture supernatant was diluted into 100 μL of 1×PBST, pH 7.4 for low expressors for loading onto the sensor tips. Diluted supernatants were then captured on an anti-human Fc sensor (Forte Bio).
# [3] = molecular target: T1, MET (cMET, Sino Biological Cat. No. …); assay: BLI: antibody captured on anti-human Fc biosensor, MET in solution; three runs: pH 7.4 throughout (black), pH 6.4 throughout (light grey), association at pH 7.4 then release at lower pH (dark grey; key on D00015: pH 5.4; legend paragraph 84: pH 6.4); association 0-120 s
# [4] = molecular target: T1, MET (cMET, Sino Biological Cat. No. …); assay: as above; remark: listed apart in the source
# [5] = molecular target: T2, MET Proto-Oncogene, Receptor Tyrosine Kinase (MET), on cells (human, UniProt P08581 25-1390); assay: affinity on HUVEC against affinity on Detroit-562, flow cytometry, pH 7.4
# T2 construct: also called cMET; c-Met
# T2 sequence (P08581 25-1390): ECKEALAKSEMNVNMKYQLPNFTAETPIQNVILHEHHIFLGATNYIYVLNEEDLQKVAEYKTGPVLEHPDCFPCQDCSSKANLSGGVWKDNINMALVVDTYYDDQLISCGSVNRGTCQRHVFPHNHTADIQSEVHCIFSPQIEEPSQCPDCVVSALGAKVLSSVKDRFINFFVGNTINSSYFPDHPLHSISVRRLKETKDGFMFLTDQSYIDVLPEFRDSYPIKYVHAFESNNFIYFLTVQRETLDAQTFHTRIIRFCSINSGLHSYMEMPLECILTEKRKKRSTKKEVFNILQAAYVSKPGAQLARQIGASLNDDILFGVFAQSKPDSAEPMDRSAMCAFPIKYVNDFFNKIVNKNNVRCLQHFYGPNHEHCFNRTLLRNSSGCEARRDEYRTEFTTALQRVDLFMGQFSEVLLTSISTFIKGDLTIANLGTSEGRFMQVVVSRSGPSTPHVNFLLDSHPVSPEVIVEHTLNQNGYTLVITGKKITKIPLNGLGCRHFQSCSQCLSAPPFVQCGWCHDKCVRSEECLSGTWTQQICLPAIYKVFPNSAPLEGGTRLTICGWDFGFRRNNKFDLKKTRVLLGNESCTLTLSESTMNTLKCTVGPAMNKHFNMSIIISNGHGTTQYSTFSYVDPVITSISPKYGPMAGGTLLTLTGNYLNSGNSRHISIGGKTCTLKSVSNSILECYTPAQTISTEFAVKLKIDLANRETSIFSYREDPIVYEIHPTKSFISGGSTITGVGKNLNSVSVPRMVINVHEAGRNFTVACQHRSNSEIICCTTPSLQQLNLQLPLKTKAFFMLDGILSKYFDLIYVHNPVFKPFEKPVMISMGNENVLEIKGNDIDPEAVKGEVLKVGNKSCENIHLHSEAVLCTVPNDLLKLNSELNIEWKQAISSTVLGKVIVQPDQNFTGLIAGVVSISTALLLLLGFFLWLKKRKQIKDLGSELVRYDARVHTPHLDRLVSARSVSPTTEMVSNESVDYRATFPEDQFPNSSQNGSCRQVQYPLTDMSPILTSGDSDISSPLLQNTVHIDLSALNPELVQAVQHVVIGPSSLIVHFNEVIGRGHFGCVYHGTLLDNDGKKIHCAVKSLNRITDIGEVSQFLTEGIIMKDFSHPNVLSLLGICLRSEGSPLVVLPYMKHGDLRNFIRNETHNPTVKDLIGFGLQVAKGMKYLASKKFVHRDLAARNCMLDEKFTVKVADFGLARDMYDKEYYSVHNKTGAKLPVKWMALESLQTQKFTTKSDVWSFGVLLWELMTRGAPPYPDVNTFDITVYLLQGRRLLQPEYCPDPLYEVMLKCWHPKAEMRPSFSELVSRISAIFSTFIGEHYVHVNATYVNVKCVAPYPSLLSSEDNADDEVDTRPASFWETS
# Method: (§1) Measurement of the affinity of pH-engineered antibodies specific for MET was performed by FACS analysis on cell lines with ranges of cMET expression; Detroit-562 cells (ATCC; CCL-138), NCI-H1975 (ATCC CRL-5908) and HUVEC (C2519A, Lonza). Cell lines selected for this study were obtained from commercial sources and cultured using manufacturer recommended conditions. All cell lines were cultured upon receipt, expanded and cryopreserved at a similar passage number for use in the affinity experiments. Briefly, 1.0×10\hat{ }5 cells that express MET are plated per well in a 96-well plate in 100 μL media. The cells are washed two times with 200 μL of FACS buffer (1×PBS containing 3% Fetal Bovine Serum) at pH 7.4. The purified protein samples are diluted into FACS buffer at pH 7.4, for a titration from 100 nM to 1 pM, and added to the cells and allowed to bind for 2 hours on ice. After incubation with the primary antibodies, cells are washed twice as before, and then 100 μl of secondary goat anti-Human AF488 (IgG Cross-Adsorbed polyclonal secondary antibody), diluted 1:200, is added in FACS buffer pH 7.4, and incubated for 1 hour on ice. The plates are washed twice Binding is read on a flow cytometer (Accuri C6, BD Biosciences). Binding is observed as a shift in the FL1 signal (as a mean fluorescence intensity) versus secondary alone.
# [6] = molecular target: T2, MET Proto-Oncogene, Receptor Tyrosine …; assay: flow cytometry titration on Detroit-562 cells (125K/cell), pH 7.4; printed as Affinity at pH 7.4
# Method: as §1
# [7] = molecular target: T2, MET Proto-Oncogene, Receptor Tyrosine …; assay: flow cytometry titration on HUVEC cells (8k/cell), pH 7.4; printed as Affinity at pH 7.4; HUVEC cells (8k/cell), pH 7.4
# Method: as §1
# T1 sequence (P08581 25-932 limits assumed): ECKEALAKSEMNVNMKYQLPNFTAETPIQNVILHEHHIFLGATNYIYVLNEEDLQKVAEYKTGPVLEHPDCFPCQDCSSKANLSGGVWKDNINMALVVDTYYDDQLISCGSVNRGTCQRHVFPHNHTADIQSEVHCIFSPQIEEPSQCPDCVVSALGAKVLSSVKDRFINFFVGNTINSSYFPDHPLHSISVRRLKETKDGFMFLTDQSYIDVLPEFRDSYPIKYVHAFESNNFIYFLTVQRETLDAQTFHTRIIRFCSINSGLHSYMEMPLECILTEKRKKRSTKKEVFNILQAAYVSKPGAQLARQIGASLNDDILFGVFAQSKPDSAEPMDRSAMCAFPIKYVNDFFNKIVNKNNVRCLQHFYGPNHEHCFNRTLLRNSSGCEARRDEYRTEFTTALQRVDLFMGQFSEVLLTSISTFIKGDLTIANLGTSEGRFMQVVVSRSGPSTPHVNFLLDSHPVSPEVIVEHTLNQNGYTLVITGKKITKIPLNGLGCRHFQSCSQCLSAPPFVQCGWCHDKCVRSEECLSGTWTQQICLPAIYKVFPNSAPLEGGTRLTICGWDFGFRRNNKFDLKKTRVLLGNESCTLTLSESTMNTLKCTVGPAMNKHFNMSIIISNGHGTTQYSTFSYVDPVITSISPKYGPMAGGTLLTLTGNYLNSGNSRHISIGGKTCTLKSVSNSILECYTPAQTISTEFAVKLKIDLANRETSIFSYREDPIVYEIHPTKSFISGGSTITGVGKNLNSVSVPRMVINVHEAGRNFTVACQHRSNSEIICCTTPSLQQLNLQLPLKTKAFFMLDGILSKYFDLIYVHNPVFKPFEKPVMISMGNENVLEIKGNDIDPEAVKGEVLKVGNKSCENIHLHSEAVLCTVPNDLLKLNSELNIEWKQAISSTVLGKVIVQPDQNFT
binder,measurement,setting,value
"MYT4940 (antibody, V domains shown, Telisotuzumab variant) VH: QVQLVQSGAEVKKPGASVKVSCKASGYIFTAYTMHWVRQAPGQGLEWMGWIKPNNGLANYAQKFQGRVTMTRDTSISTAYMELSRLRSDDTAVYYCARHEITTEFDHWGQGTLVTVSS VL: DIVMTQSPDSLAVSLGERATINCKSSESVDSYANSHLHWYQQKPGQPPKLLIYRASTRESGVPDRFSGSGSGTDFTLTISSLQAEDVAVYYCQQSKEDPLTFGGGTKVEIKR",binding result,[1],binds
"MYT4313 (antibody, V domains shown, P3D12 variant) VH: QVQLVQSGAEVKKPGASVKVSCKASGYTFTSYWMHWVKQAPGQGLDWIGYIKPSTDNTHYNQKFKDKATLTADKSTSTAYMELSSLRSEDTAVYYCARSYGHYPLMDYWGQGTTVTVSS VL: QIVLTQSPAILSLSPGERATLSCSASSSVTSNYLYWYQQKPGSSPKLLIYSTSNLASGVPARFSGSGSGTSYTLTISSLEAEDAASYFCHQWSSYPPTFGSGTKLEIKR",binding result,[2],binds
"MYT4827 (antibody, V domains shown, Emibetuzumab variant) VH: QVQLVQSGAEVKKPGASVKVSCKASGYTFTHYYMHWVRQAPGQGLEWMGRVNPNRRGTTYNQKFEGRVTMTTDTSTSTAYMELRSLRSDDTAVYYCARAHWLDYWGQGTTVTVSS VL: DIQMTQSPSSLSASVGDRVTITCSVSSSVSSIYLHWYQQKPGKAPKLLIYSTSNLASGVPSRFSGSGSGTDFTLTISSLQPEDFATYYCQVYSGYPLTFGGGTKVEIKR",binding result,[3],binds
"MYT4849 (antibody, V domains shown, Emibetuzumab variant) VH: QVQLVQSGAEVKKPGASVKVSCKASGYTFTDYYMHWVRQAPGQGLEWMGRVNPNRRGTTYNQKFEGRVTMTTDTSTSTAYMELRSLRSDDTAVYYCARANWLDYWGQGTTVTVSS VL: DIQMTQSPSSLSASVGDRVTITCSVSSSVSSIHLHWYQQKPGKAPKLLIYHTSNLASGVPSRFSGSGSGTDFTLTISSLQPEDFATYYCQVYSGYPLTFGGGTKVEIKR",binding result,[4],binds
"MYT4325 (antibody, V domains shown, P3D12 variant) VH: QVQLVQSGAEVKKPGASVKVSCKASGYTFTSYWMHWVKQAPGQGLDWIGYIKPSTDNTHYNQKFKDKATLTADKSTSTAYMELSSLRSEDTAVYYCARSYGHYPLMHYWGQGTTVTVSS VL: QIVLTQSPAILSLSPGERATLSCSASSSVTSNYLYWYQQKPGSSPKLLIYSTSNLASGVPARFSGSGSGTSYTLTISSLEAEDAASYFCHQWSSYPPTFGSGTKLEIKR",Fold Avidity,[5],> 220 fold
same,Kd,[6],0.903 nM
same,Kd,[7],> 200 nM
